# Values quoted from earlier work, collected in PMC3312455.
# Where “and” joins values, the source holds several entries; their conditions need not be identical. Equal entries are not always repeated.
# Legend:
# Assay in all cases: SPR
# [1] = target: αvβ3 integrin receptor (Homo sapiens) (UniProt P06756)
# [2] = target: FGFR2-IIIb ECD (Homo sapiens) (UniProt P21802)
# [3] = target: FGFR1-IIIc ECD (Homo sapiens) (UniProt P11362)
# [4] = target: FGFR2-IIIb D2-D3 (Homo sapiens) (UniProt P21802)
# [5] = target: FGFR3-IIIc D1-D3 (Homo sapiens) (UniProt P22607)
# [6] = target: FGFR3-IIIc D2-D3 (Homo sapiens) (UniProt P22607)
# [7] = target: agrin (UniProt O00468)
# [8] = target: FGFR1-IIIc D1-D3 (Homo sapiens) (UniProt P11362)
# [9] = target: FGFR1-IIIc D2-D3 (Homo sapiens) (UniProt P11362)
# FGFR1-IIIc D2-D3 (Homo sapiens), sequence (P11362 142-365): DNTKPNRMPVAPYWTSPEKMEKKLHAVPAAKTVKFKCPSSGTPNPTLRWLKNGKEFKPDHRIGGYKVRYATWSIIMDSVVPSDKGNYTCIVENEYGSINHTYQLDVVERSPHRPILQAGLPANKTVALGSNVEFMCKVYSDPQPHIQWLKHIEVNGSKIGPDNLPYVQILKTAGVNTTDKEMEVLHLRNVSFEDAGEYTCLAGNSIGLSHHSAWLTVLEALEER
# [10] = target: c-MET ECD (Homo sapiens) (UniProt P08581)
# c-MET ECD (Homo sapiens), sequence (P08581 25-932): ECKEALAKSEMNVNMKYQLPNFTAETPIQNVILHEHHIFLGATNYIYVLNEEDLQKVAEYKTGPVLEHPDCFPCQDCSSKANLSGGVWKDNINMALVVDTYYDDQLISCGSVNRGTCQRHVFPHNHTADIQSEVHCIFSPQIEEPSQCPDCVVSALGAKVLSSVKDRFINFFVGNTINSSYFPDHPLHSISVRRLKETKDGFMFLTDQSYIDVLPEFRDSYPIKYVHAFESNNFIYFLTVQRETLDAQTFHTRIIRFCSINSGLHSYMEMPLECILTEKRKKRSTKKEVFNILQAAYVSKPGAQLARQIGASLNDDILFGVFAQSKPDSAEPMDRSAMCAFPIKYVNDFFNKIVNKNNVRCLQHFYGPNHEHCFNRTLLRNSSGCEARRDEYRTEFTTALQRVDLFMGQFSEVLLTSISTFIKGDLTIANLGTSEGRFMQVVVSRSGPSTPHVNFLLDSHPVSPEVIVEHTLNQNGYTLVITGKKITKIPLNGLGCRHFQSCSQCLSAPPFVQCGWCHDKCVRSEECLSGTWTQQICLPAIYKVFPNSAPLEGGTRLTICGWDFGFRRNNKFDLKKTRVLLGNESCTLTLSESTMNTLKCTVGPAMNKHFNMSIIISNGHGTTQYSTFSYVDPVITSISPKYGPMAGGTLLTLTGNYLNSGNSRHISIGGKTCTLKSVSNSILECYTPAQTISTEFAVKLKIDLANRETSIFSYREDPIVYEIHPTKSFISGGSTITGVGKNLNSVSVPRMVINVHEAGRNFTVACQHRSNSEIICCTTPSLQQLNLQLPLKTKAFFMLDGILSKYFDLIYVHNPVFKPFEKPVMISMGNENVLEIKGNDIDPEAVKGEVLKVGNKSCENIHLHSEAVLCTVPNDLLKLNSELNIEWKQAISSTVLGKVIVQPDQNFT
# [11] = target: PDGFRβ ECD (Homo sapiens) (UniProt P09619)
# [12] = target: PDGFRα ECD (Homo sapiens) (UniProt P16234)
# [13] = target: Neuropilin-1 ECD (Homo sapiens) (UniProt O14786)
# [14] = target: VEGFR1/Flt ECD (Homo sapiens) (UniProt P17948)
# VEGFR1/Flt ECD (Homo sapiens), sequence (P17948 27-758): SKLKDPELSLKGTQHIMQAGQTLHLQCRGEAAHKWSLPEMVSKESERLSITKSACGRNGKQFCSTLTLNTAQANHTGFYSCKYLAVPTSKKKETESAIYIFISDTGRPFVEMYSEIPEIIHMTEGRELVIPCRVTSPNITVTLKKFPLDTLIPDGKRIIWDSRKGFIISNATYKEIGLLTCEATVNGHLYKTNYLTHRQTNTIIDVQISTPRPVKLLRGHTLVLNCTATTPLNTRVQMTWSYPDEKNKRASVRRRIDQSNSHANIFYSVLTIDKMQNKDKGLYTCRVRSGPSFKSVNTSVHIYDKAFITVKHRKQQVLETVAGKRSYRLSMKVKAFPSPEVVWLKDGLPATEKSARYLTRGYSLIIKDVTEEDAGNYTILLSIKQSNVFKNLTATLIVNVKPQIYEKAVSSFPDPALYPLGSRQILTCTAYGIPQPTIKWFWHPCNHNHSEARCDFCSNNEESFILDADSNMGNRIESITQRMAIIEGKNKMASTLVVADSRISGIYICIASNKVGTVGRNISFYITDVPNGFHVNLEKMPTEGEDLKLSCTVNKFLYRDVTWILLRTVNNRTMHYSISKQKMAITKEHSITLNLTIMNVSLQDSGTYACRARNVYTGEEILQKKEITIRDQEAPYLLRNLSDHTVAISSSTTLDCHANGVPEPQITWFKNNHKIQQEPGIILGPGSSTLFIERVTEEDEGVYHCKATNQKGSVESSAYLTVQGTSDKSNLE
# FGF1, sequence (P05230 16-155): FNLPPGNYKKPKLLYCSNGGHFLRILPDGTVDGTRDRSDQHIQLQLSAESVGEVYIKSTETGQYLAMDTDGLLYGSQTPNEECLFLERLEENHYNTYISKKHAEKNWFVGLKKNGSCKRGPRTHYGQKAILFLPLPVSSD
# FGFR2-IIIb ECD (Homo sapiens), sequence (P21802 22-377): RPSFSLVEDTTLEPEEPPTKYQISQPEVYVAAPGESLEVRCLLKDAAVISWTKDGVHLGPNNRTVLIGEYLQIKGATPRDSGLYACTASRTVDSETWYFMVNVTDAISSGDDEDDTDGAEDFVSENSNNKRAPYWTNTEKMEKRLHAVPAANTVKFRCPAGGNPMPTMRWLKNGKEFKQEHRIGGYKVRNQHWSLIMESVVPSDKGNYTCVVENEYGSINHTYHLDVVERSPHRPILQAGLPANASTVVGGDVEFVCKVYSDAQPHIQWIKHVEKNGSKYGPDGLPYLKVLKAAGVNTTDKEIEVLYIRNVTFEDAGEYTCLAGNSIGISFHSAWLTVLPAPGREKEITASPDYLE
# FGF2, sequence (P09038 143-288): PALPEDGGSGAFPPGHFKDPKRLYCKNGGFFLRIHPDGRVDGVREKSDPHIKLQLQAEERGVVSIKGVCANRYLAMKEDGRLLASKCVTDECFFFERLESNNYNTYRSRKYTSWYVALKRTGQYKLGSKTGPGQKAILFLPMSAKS
# VEGF-A165, sequence (P15692 whole entry): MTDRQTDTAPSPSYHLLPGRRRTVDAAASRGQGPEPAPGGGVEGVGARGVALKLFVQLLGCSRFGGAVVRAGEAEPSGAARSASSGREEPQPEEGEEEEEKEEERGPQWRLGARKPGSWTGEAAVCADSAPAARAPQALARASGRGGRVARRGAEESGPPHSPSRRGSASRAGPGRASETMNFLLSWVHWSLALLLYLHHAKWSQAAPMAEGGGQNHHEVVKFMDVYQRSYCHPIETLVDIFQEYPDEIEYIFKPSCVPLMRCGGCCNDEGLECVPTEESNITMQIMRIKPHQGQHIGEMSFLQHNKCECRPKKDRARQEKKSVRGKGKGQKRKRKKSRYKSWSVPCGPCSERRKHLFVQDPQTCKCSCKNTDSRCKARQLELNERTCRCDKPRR
# αvβ3 integrin receptor (Homo sapiens), sequence (P06756 31-1048, chain 1 of 2): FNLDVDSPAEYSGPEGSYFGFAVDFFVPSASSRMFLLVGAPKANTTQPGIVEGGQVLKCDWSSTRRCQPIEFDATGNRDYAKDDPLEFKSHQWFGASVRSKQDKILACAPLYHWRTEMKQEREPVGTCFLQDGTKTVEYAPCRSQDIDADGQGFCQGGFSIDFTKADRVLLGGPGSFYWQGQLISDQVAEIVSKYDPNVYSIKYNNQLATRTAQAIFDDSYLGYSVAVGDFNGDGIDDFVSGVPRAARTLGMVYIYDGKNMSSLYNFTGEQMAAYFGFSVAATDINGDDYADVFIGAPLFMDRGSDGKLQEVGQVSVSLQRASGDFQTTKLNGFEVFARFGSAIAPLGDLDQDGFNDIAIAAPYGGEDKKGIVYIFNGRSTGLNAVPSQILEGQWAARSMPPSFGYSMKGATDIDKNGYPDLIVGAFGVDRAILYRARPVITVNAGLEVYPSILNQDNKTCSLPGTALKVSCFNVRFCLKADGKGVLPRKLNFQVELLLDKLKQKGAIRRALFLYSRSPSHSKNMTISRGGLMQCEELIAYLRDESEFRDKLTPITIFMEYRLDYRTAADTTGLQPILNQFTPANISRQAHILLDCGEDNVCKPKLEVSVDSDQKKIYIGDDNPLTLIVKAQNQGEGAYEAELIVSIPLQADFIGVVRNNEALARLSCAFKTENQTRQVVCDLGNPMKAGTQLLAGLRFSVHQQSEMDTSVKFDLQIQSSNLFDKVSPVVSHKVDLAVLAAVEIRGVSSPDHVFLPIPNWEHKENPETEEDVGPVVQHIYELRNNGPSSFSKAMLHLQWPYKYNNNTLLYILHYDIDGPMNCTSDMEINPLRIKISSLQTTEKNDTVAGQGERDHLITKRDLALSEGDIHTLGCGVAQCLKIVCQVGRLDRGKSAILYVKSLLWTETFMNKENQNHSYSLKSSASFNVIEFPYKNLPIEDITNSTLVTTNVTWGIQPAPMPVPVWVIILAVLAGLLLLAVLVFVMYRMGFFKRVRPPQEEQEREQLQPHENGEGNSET
# αvβ3 integrin receptor (Homo sapiens), sequence (P05106 27-788, chain 2 of 2, further chain): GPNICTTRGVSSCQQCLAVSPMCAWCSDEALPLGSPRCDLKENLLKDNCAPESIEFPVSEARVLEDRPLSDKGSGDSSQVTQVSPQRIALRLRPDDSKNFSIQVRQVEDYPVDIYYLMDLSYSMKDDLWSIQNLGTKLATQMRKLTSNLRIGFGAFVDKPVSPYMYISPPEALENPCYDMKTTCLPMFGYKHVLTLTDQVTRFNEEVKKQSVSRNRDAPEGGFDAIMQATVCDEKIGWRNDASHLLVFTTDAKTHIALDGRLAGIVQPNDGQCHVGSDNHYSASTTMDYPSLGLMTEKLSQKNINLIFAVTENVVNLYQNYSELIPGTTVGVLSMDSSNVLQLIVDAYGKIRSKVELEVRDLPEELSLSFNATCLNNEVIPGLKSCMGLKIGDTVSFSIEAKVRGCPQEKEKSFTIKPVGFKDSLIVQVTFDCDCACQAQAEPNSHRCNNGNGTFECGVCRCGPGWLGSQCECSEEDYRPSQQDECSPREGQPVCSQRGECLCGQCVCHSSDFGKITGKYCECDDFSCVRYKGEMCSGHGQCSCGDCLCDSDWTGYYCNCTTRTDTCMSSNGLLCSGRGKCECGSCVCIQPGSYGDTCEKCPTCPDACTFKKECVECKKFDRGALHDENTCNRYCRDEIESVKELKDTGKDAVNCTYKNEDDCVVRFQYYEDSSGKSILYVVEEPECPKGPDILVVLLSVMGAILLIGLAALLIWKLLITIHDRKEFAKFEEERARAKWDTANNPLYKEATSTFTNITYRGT
# FGF4, sequence (P08620 31-206): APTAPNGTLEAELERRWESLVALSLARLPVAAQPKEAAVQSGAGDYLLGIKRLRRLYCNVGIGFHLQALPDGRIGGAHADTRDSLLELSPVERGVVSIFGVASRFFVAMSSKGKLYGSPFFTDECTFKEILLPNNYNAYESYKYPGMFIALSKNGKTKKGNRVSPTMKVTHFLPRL
# PDGF-BB, sequence (P01127 82-190): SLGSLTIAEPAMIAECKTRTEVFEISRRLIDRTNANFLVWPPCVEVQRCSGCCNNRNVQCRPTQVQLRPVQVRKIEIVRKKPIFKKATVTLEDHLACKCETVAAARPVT
substance,measurement,setting,value
FGF1 (from UniProt P05230),Kd,[1],1100 nM
same,Kd,[2],0.8 nM
same,Kd,[3],35 nM
same,Kd,[4],59.6 nM
same,Kd,[5],916 nM
same,Kd,[6],230 nM
FGF2 (from UniProt P09038),Kd,[7],2.5 nM
same,Kd,[8],99 nM
same,Kd,[9],62 nM
same,Kd,[2],0.5 nM
FGF4 (from UniProt P08620),Kd,[9],165 nM
same,Kd,[2],0.42 nM
HGF (from UniProt P14210),Kd,[10],50 nM and 90 nM
HIV-Tat (from UniProt P04326),Kd,[1],32 nM
PDGF-AA (from UniProt P04085),Kd,[11],453 nM
same,Kd,[12],13.4 nM
PDGF-BB (from UniProt P01127),Kd,[12],150 nM
VEGF-A165 (from UniProt P15692),Kd,[13],2000 nM
same,Kd,[14],0.007 nM and 0.03 nM
